The source of these data is publication PMC5682286.

The target in assay [1] is tES-GFPuv, GFPuv fused to the C-terminus of a histidine-tagged tES subunit (Archaeoglobus fulgidus | not stated) (UniProt O29424).
For assay [2] the target is unchanged. The assay can be described thus: pull-down + SEC; tES(+) and His-tagged tES-POI coexpressed in E. coli BL21(DE3); Ni-NTA by the His tag of the fusion subunit, then SEC (25 mM Tris-HCl, pH 8); ratio by gel densitometry of purified fractions.
Assay [3] has as its target tES-HRPc, truncated horseradish peroxidase fused to the C-terminus of a histidine-tagged tES subunit (Archaeoglobus fulgidus | horseradish) (UniProt O29424). Described as above.
Assay [4] has as its target tES-rLuc, Renilla luciferase fused to the C-terminus of a histidine-tagged tES subunit (Archaeoglobus fulgidus | Renilla) (UniProt O29424). Described as above.

On to “tES(+)F116H, pH-titratable exoshell subunit (from UniProt O29424 1-164)”, for which, in assay [1], the GFPuv fluorescence after in vitro folding; molar ratios of tES(+)F116H subunits to tES-GFPuv from 0:1 to 90:1, highest at 90:1 is 100 fold.
For the substance “tES(+) thermostable exoshell subunit, net positive cavity (from UniProt O29424 1-164)”, the values for the stoichiometry N (tES subunits per tES-POI fusion subunit) in assay [2], in assay [3] and in assay [4] were 32, 19 and 20, respectively.
